According to patent US9844546B2, “Antibody against human HIF hydroxylase” (OXFORD UNIVERSITY INNOVATION LIMITED, priority 2001, dated 2017):
“Also recorded” adds a separate entry of the source.

Target: T1, HIF-1α/pVHL interaction (Homo sapiens, UniProt P40337)
T1 construct: made in house; host or cells: TNT rabbit reticulocyte lysate (Promega), in vitro transcription/translation
Test: Polypeptide blocking assay of HIF-1α and pVHL.HA IVTT mixture, anti-HA immunoprecipitation
Type: binding
Method: Further studies were performed using synthetic polypeptides as inhibitors of the HIF-1α/pVHL interaction (23). […] Results for a series of polypeptides derived from this domain are summarized in FIG. 1B and implicate a similar minimal interaction domain. […] This polypeptide comprises HIF-1α polypeptide residues 556 to 574 and its ability to block binding following exposure to a variety of direct oxidation conditions was assessed.
We synthesized a polypeptide (HIF-1α residues 556-574), containing a trans-4-hydroxy-S-proline residue at position 564 (19:Pro564Hyp), since the trans-4-hydroxylation is the commonest enzymatic proline oxidation (25). A polypeptide blocking assay was carried out using the 19:Pro564Hyp modified polypeptide and, as a control, the unmodified polypeptide without the trans-4-hydroxylation (19:WT). The 19:WT polypeptide was either incubated with cell extract before the binding assay or was untreated. The 19:Pro564Hyp polypeptide was added to a mixture of HIF-1α and pVHL-HA IVTTs at a concentration of 1, 0.25, 0.05 or 0.01 μM and the cell extract treated or untreated 19:WT polypeptide at a concentration of 0.5 μM. Interaction of HIF-1α with pVHL was then assayed by anti-HA immunoprecipitation. […] A pVHL capture assay was then carried out using biotinylated synthetic polypeptides. The same polypeptides, 19:Pro564Hyp and 19:WT were assessed for the ability to capture wild type or mutant (Pro86His) pVHL. […] In both cases capture was specific for wild type, as opposed to mutant, pVHL.
• 1. G. L. Semenza, Genes Dev 14, 1983-91. (2000). • 2. N. V. Iyer, et al., Genes Dev. 12, 149-162 (1997). • 3. E. Maltepe, J. V. Schmidt, D. Baunoch, C. A. Bradfield, M. C. Simon, Nature 386, 403-407 (1997). • 4. G. L. Wang, B.-H. Jiang, E. A. Rue, G. L. Semenza, Proc. Natl. Acad. Sci. USA 92, 5510-5514 (1995). • 5. S. Salceda, J. Caro, J. Biol. Chem. 272, 22642-22647 (1997). • 6. L. E. Huang, J. Gu, M. Schau, H. F. Bunn, Proc. Natl. Acad. Sci. USA 95, 7987-7992 (1998). • 7. M. S. Wiesener, et al., Blood 92, 2260-2268 (1998). • 8. P. H. Maxwell, et al., Nature 399, 271-275 (1999). • 9. K. Iwai, et al., Proc. Natl. Acad. Sci. USA 96, 12436-12441 (1999). • 10. J. Lisztwan, G. Imbert, C. Wirbelauer, M. Gstaiger, W. Krek, Genes Dev 13, 1822-33 (1999). • 11. M. E. Cockman, et al., J Biol Chem (2000). • 12. M. Ohh, et al., Nat Cell Biol 2, 423-7. (2000). • 13. T. Kamura, et al., Proc Natl Acad Sci USA 97, 10430-5. (2000). • 14. K. Tanimoto, Y. Makino, T. Pereira, L. Poellinger, Embo J 19, 4298-309. (2000). • 15. M. A. Goldberg, S. P. Dunning, H. F. Bunn, Science 242, 1412-1415 (1988). • 16. G. L. Wang, G. L. Semenza, Blood 82, 3610-3615 (1993). • 17. G. L. Semenza, Cell 98, 281-284 (1999). • 18. Hypoxia (<0.1% oxygen) was obtained in a workstation with O2, CO2 and temperature control (Ruskinn Technologies, Leeds, UK). For hypoxic harvest, buffers were preincubated in the chamber overnight. RCC4-VHL.HA, labelling conditions and co-immunoprecipitation assays have been described previously (11); in the current study 12.5 μM MG132 was used for proteasomal inhibition. For standard harvest, the cells were removed from the chamber after hypoxic exposure, prior to cell lysis. Co-immunoprecipitation assays on all lysates were performed at 4° C. under ambient oxygen conditions. […] When programming in hypoxia, reaction mix was preincubated in the workstation for 10 minutes before addition of the DNA template. […]

T1 sequence (P40337 whole entry): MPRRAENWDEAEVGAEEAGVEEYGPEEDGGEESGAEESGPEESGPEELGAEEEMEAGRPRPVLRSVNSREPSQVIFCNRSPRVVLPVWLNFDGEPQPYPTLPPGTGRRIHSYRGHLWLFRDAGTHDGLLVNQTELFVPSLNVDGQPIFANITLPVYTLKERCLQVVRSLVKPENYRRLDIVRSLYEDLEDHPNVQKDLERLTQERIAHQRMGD

blocking of HIF-1α/pVHL interaction by polypeptide after exposure to cell extract (cell extract supplemented with Fe(II))	Substance	blocking of HIF-1α/pVHL interaction by polypeptide not exposed to cell extract (untreated polypeptide)
	19:Pro564Hyp: polypeptide (HIF-1α residues 556-574) containing a trans-4-hydroxy-S-proline residue at position 564	highly effective at inhibiting the HIF-1α/pVHL interaction; also recorded: blocked the HIF-1α/pVHL interaction without the need for exposure to cell extract
blocking activity	19:WT: polypeptide comprising HIF-1α residues 556 to 574	
